Laboratory results taken from patent publication US20110002939A1 (BIOCON, published 2011).

Target: T1, rhCD6FC/Chimera (R and D systems) (human, UniProt P30203 25-398)
T1 construct: Bought reagent; also called CD6 receptor; Fc part of the bought chimera not given
T1 sequence (looked up): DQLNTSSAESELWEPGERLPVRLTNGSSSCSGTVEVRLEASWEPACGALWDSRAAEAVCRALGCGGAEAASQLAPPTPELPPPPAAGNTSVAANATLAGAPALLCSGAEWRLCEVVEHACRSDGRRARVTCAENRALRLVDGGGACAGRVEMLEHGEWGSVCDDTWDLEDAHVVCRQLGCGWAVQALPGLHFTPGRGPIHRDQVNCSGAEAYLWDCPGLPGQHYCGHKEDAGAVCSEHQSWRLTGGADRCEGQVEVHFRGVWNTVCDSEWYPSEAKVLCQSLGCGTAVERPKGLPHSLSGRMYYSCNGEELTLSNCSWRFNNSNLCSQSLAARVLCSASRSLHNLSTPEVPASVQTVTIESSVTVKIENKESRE
Assay: ELISA, plate-bound rhCD6-Fc, T1h 0.2 mg/ml with varying rhALCAM-Fc, anti human IgG (Fab)2 ALP detection
Protocol: The rhCD6FC/Chimera (R and D systems) (100 μg/ml) was diluted in coating buffer and 100 μl was added to each well of a 96 well Nunc-Maxisorp plate. The plate was then incubated at 4° C. overnight. The Plate was washed thrice with PBS Tween 20. Subsequently, 200 μl of blocking solution (2% BSA+0.1%Tween 20 in 1× PBS) was added and incubated for 1 hour at 37° C. After incubation, the plate was washed again with PBS Tween thrice, followed by the addition of T1h monoclonal antibody (0.2 mg/ml) and .rhALCAMFc (R and D systems) at varying concentrations. This was then incubated for an hour at 37° C. The plate was washed 3 times subsequently with PBS Tween. To the wells 200 μl of anti human IgG (Fab)₂ ALP (1:20000) diluted in blocking buffer was added and incubated for 1 hour at 37° C. The plate was washed thrice with PBS tween and 200 μl of p-Nitrophenyl Phosphate (PNPP) substrate is added to each well and incubated at 37° C. till colour develops around 15 minutes. Reading was taken at 405 nm using a BIOTEK Micro Plate Reader.

B1: T1h, humanized IgG1 isotype anti-CD6 monoclonal antibody (antibody, V domains shown)
VH: EVQLVESGGGLVKPGGSLKLSCAASGFKFSRYAMSWVRQAPGKRLEWVATISSGGSYIYYPDSVKGRFTISRDNVKNTLYLQMSSLRSEDTAMYYCARRDYDLDYFDSWGQGTLVTVSS
VL: DIQMTQSPSSLSASVGDRVTITCKASRDIRSYLTWYQQKPGKAPKTLIYYATSLADGVPSRFSGSGSGQDYSLTISSLESDDTATYYCLQHGESPFTLGSGTKLEIK
notes: also called humanized IOR-T1; sT1h
B1: binds.
